Reference: the Human Domainome abundance scans (Beltran et al. 2025)
± gives the uncertainty stated by the source.

B1: POU domain, class 3, transcription factor 1, residues 247 to 324; numbered along this chain, Q03052 (parent)
chain: EDAPSSDDLEQFAKQFKQRRIKLGFTQADVGLALGTLYGNVFSQTTICRFEALQLSFKNMCKLKPLLNKWLEETDSSS

Variants of: B1
Test: abundance fitness (aPCA) (normalised: wild type 0, dead -1); higher = more abundant; growth selection in yeast, the domain comes from the species named
Settings: Homo sapiens

In order of rising abundance fitness:
1. EDAPSSDDLEQFAKQFKQRRIKLGFTQADVGLALGTLYGNVFSQTTICRFEALQLSFKNMCKLKPLLNKWLEEIDSSS [T74I]  -0.479 ± 0.39
2. EDAPSSDDLEQFAKQFKQRRIKLGFTQADVGLALGTLYGNVFSQTTICRFEALQLSFKNMCKLKPLLNKWLEEGDSSS [T74G]  -0.418 ± 0.066
3. EDAPSSDDLEQFAKQFKQRRIKLGFTQADVGLALGTLYGNVFSQTTICRFEALQLSFKNMCKLKPLLNKWLEPTDSSS [E73P]  -0.378 ± 0.12
4. EDAPSSDDLEQFAKQFKQRRIKLGFTQADVGLALGTLYGNVFSQTTICRFEALQLSFKNMCKLKPLLNKWLEITDSSS [E73I]  -0.351 ± 0.22
5. EDAPSSDDLEQFAKQFKQRRIKLGFTQADVGLALGTLYGNVFSQTTICRFEALQLSFKNMCKLKPLLNKWLEEWDSSS [T74W]  -0.224 ± 0.08
6. EDAPSSDDLEQFAKQFKQRRIKLGFTQADVGLALGTLYGNVFSQTTICRFEALQLSFKNMCKLKPLLNKWLEYTDSSS [E73Y]  -0.197 ± 0.15
7. EDAPSSDDLEQFAKQFKQRRIKLGFTQADVGLALGTLYGNVFSQTTICRFEALQLSFKNMCKLKPLLNKWLEGTDSSS [E73G]  -0.196 ± 0.042
8. EDAPSSDDLEQFAKQFKQRRIKLGFTQADVGLALGTLYGNVFSQTTICRFEALQLSFKNMCKLKPLLNKWLEEYDSSS [T74Y]  -0.156 ± 0.19
9. EDAPSSDDLEQFAKQFKQRRIKLGFTQADVGLALGTLYGNVFSQTTICRFEALQLSFKNMCKLKPLLNKWLENTDSSS [E73N]  -0.154 ± 0.12
10. EDAPSSDDLEQFAKQFKQRRIKLGFTQADVGLALGTLYGNVFSQTTICRFEALQLSFKNMCKLKPLLNKWLEESDSSS [T74S]  -0.141 ± 0.1
11. EDAPSSDDLEQFAKQFKQRRIKLGFTQADVGLALGTLYGNVFSQTTICRFEALQLSFKNMCKLKPLLNKWLEWTDSSS [E73W]  -0.137 ± 0.054
12. EDAPSSDDLEQFAKQFKQRRIKLGFTQADVGLALGTLYGNVFSQTTICRFEALQLSFKNMCKLKPLLNKWLEVTDSSS [E73V]  -0.128 ± 0.052
13. EDAPSSDDLEQFAKQFKQRRIKLGFTQADVGLALGTLYGNVFSQTTICRFEALQLSFKNMCKLKPLLNKWLESTDSSS [E73S]  -0.126 ± 0.061
14. EDAPSSDDLEQFAKQFKQRRIKLGFTQADVGLALGTLYGNVFSQTTICRFEALQLSFKNMCKLKPLLNKWLEEEDSSS [T74E]  -0.121 ± 0.087
15. EDAPSSDDLEQFAKQFKQRRIKLGFTQADVGLALGTLYGNVFSQTTICRFEALQLSFKNMCKLKPLLNKWLEFTDSSS [E73F]  -0.105 ± 0.16
16. EDAPSSDDLEQFAKQFKQRRIKLGFTQADVGLALGTLYGNVFSQTTICRFEALQLSFKNMCKLKPLLNKWLERTDSSS [E73R]  -0.081 ± 0.038
17. EDAPSSDDLEQFAKQFKQRRIKLGFTQADVGLALGTLYGNVFSQTTICRFEALQLSFKNMCKLKPLLNKWLEEMDSSS [T74M]  -0.062 ± 0.095
18. EDAPSSDDLEQFAKQFKQRRIKLGFTQADVGLALGTLYGNVFSQTTICRFEALQLSFKNMCKLKPLLNKWLEATDSSS [E73A]  -0.038 ± 0.055
19. EDAPSSDDLEQFAKQFKQRRIKLGFTQADVGLALGTLYGNVFSQTTICRFEALQLSFKNMCKLKPLLNKWLETTDSSS [E73T]  -0.034 ± 0.073
20. EDAPSSDDLEQFAKQFKQRRIKLGFTQADVGLALGTLYGNVFSQTTICRFEALQLSFKNMCKLKPLLNKWLEHTDSSS [E73H]  -0.03 ± 0.093
21. EDAPSSDDLEQFAKQFKQRRIKLGFTQADVGLALGTLYGNVFSQTTICRFEALQLSFKNMCKLKPLLNKWLELTDSSS [E73L]  -0.018 ± 0.047
22. EDAPSSDDLEQFAKQFKQRRIKLGFTQADVGLALGTLYGNVFSQTTICRFEALQLSFKNMCKLKPLLNKWLEETASSS [D75A]  -0.015 ± 0.074
23. EDAPSSDDLEQFAKQFKQRRIKLGFTQADVGLALGTLYGNVFSQTTICRFEALQLSFKNMCKLKPLLNKWLEMTDSSS [E73M]  -0.012 ± 0.063
24. EDAPSSDDLEQFAKQFKQRRIKLGFTQADVGLALGTLYGNVFSQTTICRFEALQLSFKNMCKLKPLLNKWLEECDSSS [T74C]  -0.009 ± 0.11
25. EDAPSSDDLEQFAKQFKQRRIKLGFTQADVGLALGTLYGNVFSQTTICRFEALQLSFKNMCKLKPLLNKWLEERDSSS [T74R]  -0.009 ± 0.053
26. EDAPSSDDLEQFAKQFKQRRIKLGFTQADVGLALGTLYGNVFSQTTICRFEALQLSFKNMCKLKPLLNKWLEEKDSSS [T74K]  0.04 ± 0.12
27. EDAPSSDDLEQFAKQFKQRRIKLGFTQADVGLALGTLYGNVFSQTTICRFEALQLSFKNMCKLKPLLNKWLEQTDSSS [E73Q]  0.041 ± 0.077
28. EDAPSSDDLEQFAKQFKQRRIKLGFTQADVGLALGTLYGNVFSQTTICRFEALQLSFKNMCKLKPLLNKWLEEVDSSS [T74V]  0.042 ± 0.064
29. EDAPSSDDLEQFAKQFKQRRIKLGFTQADVGLALGTLYGNVFSQTTICRFEALQLSFKNMCKLKPLLNKWLEETCSSS [D75C]  0.089 ± 0.13
30. EDAPSSDDLEQFAKQFKQRRIKLGFTQADVGLALGTLYGNVFSQTTICRFEALQLSFKNMCKLKPLLNKWLEEQDSSS [T74Q]  0.089 ± 0.086
31. EDAPSSDDLEQFAKQFKQRRIKLGFTQADVGLALGTLYGNVFSQTTICRFEALQLSFKNMCKLKPLLNKWLEEADSSS [T74A]  0.12 ± 0.063
32. EDAPSSDDLEQFAKQFKQRRIKLGFTQADVGLALGTLYGNVFSQTTICRFEALQLSFKNMCKLKPLLNKWLEEHDSSS [T74H]  0.231 ± 0.13
33. EDAPSSDDLEQFAKQFKQRRIKLGFTQADVGLALGTLYGNVFSQTTICRFEALQLSFKNMCKLKPLLNKWLEDTDSSS [E73D]  0.267 ± 0.082
34. EDAPSSDDLEQFAKQFKQRRIKLGFTQADVGLALGTLYGNVFSQTTICRFEALQLSFKNMCKLKPLLNKWLEENDSSS [T74N]  0.278 ± 0.22
35. EDAPSSDDLEQFAKQFKQRRIKLGFTQADVGLALGTLYGNVFSQTTICRFEALQLSFKNMCKLKPLLNKWLEEFDSSS [T74F]  0.453 ± 0.28
